The values below come from patent US20080153130.

Data set [1] concerns the target His6UBI::ElisaC hybrid protein (six histidines, ubiquitin and the C-terminal fragment of UBP1ΔC protease).
Data set [2] deals with T1, UBI::KALA hybrid protein substrate (ubiquitin fused to the 18-amino-acid KALA peptide).
T1 chain: DPGDKDGDGYISAAEAMA

B1: UBP1ΔC protease (UBP1 deletion mutant with mutation C at position 754) (protein)
chain: GGDHLNYIVESVSEMTTNFRNNNSLSRWLPRSKFTHLDEEILKRGGFIAGLVNDGNTCFMNSVLQSLASSRELMEFLDNNVIRTYEEIEQNEHNEEGNGQESAQDEATHKKNTRKGGKVYGKHKKKLNRKSSSKEDEEKSQEPDITFSVALRDLLSALNAKYYRDKPYFKTNSLLKAMSKSPRKNILLGYDQEDAQEFFQNILAELESNVKSLNTEKLDTTPVAKSELPDDALVGQLNLGEVGTVYIPTEQIDPNSILHDKSIQNFTPFKLMTPLDGITAERIGCLQCGENGGIRYSVFSGLSLNLPNENIGSTLKLSQLLSDWSKPEIIEGVECNRCALTAAHSHLFGQLKEFEKKPEGSIPEKPINAVKDRVHQIEEVLAKPVIDDEDYKKLHTANMVRKCSKSKQILISRPPPLLSIHINRSVFDPRTYMIRKNNSKVLFKSRLNLAPWCCDINEINLDARLPMSKKEKAAQQDSSEDENIGGEYYTKLHERFEQEFEDSEEEKEYDDAEGNYASHYNHTKDISNYDPLNGEVDGVTSDDEDEYIEETDALGNTIKKRIIEHSDVENENVKDNEELQEIDNVSLDEPKINVEDQLETSSDEEDVIPAPPINYARSFSTVPATPLTYSLRSVIVHYGTHNYGHYIAFRKYRGCWWRISDETVYVVDEAEVLSTPGVFMLFYEYDFDEETGKMKDDLEAILSNNEEDDEKEQEQKGVQEPKESQEQGEGEEQEEGQEQMKFERTEDHRDISGKDVNGSHHHHHH
On to B1, for which the “proteolytic activity (cleavage of ubiquitin from the hybrid substrate, SDS-PAGE image analysis), reference enzyme” value in data set [1] and in data set [2] was “the enzyme UBP1ΔC2 is 5-6 times more active than mutant UBP1 AC” throughout.

B2: UBP1ΔC2 protease (UBP1 truncated by 98 N-terminal amino acids, mutation C Gln754Leu, six histidine residues at its C-end) (protein)
chain: GGFIAGLVNDGNTCFMNSVLQSLASSRELMEFLDNNVIRTYEEIEQNEHNEEGNGQESAQDEATHKKNTRKGGKVYGKHKKKLNRKSSSKEDEEKSQEPDITFSVALRDLLSALNAKYYRDKPYFKTNSLLKAMSKSPRKNILLGYDQEDAQEFFQNILAELESNVKSLNTEKLDTTPVAKSELPDDALVGQLNLGEVGTVYIPTEQIDPNSILHDKSIQNFTPFKLMTPLDGITAERIGCLQCGENGGIRYSVFSGLSLNLPNENIGSTLKLSQLLSDWSKPEIIEGVECNRCALTAAHSHLFGQLKEFEKKPEGSIPEKPINAVKDRVHQIEEVLAKPVIDDEDYKKLHTANMVRKCSKSKQILISRPPPLLSIHINRSVFDPRTYMIRKNNSKVLFKSRLNLAPWCCDINEINLDARLPMSKKEKAAQQDSSEDENIGGEYYTKLHERFEQEFEDSEEEKEYDDAEGNYASHYNHTKDISNYDPLNGEVDGVTSDDEDEYIEETDALGNTIKKRIIEHSDVENENVKDNEELQEIDNVSLDEPKINVEDQLETSSDEEDVIPAPPINYARSFSTVPATPLTYSLRSVIVHYGTHNYGHYIAFRKYRGCWWRISDETVYVVDEAEVLSTPGVFMLFYEYDFDEETGKMKDDLEAILSNNEEDDEKEQEQKGVQEPKESQEQGEGEEQEEGQEQMKFERTEDHRDISGKDVNGSHHHHHH
For the protein B2, in data set [1], the “preparative digestion of the hybrid protein, then Ni-NTA chromatography and SDS-PAGE” value is given as “High purity ElisaC protein was obtained, cleaved from 6HisUBI”. Further, the “proteolytic activity (cleavage of ubiquitin from the hybrid substrate, SDS-PAGE image analysis), fold over UBP1ΔC” value in data set [1] and in data set [2] was “the enzyme UBP1ΔC2 is 5-6 times more active than mutant UBP1 AC” in each case.
